One molecule from article PMC3398911 can be followed below.

Assay [1] has as its target GST-RhoC (wild type) (human) (UniProt P08134).
The next assay concerns the target GST-RhoC-43T (human) (UniProt P08134).

B1: GST-XPLN (full length) (enzyme)
chain: MVAKDYPFYLTVKRANCSLELPPASGPAKDAEEPSNKRVKPLSRVTSLANLIPPVKATPLKRFSQTLQRSISFRSESRPDILAPRPWSRNAAPSSTKRRDSKLWSETFDVCVNQMLTSKEIKRQEAIFELSQGEEDLIEDLKLAKKAYHDPMLKLSIMTEQELNQIFGTLDSLIPLHEELLSQLRDVRKPDGSTEHVGPILVGWLPCLSSYDSYCSNQVAAKALLDHKKQDHRVQDFLQRCLESPFSRKLDLWNFLDIPRSRLVKYPLLLREILRHTPNDNPDQQHLEEAINIIQGIVAEINTKTGESECRYYKERLLYLEEGQKDSLIDSSRVLCCHGELKNNRGVKLHVFLFQEVLVITRAVTHNEQLCYQLYRQPIPVKDLLLEDLQDGEVRLGGSLRGAFSNNERIKNFFRVSFKNGSQSQTHSLQANDTFNKQQWLNCIRQAKETVLCAAGQAGVLDSEGSFLNPTTGSRELQGETKLEQMDQSDSESDCSMDTSEVSLDCERMEQTDSSCGNSRHGESNV
For B1, the XPLN-catalysed mant-nucleotide exchange in vitro, fold stimulation in assay [1] was 1.1 fold; in the assay with GST-RhoC-43T (human) it was 1.4 fold.
